Columns and labels:
His6-Cdc20^ΔN60 WT = target: T1, His6-Cdc20^ΔN60 WT (human, UniProt Q12834 61-499); test: pull-down; purified His6–Cdc20^ΔN60 WT or S92E immobilised on Ni-NTA beads, incubated with BubR1N and Mad2, 1 h at room temperature, five washes, immunoblotting; conditions: both partners purified
T1 construct: Cdc20, human, residues 61-499 (Cdc20^ΔN60); also called Cdc20 WT; recombinant Cdc20; source: Sf9, purified (Ni-NTA)

His6-Cdc20^ΔN60 S92E = target: T2, His6-Cdc20^ΔN60 S92E (human, UniProt Q12834 61-499, S92E); test: as above; conditions: both partners purified
T2 construct: Cdc20, human, residues 61-499 (Cdc20^ΔN60), phospho-mimicking S92E; also called Cdc20 S92E; source: Sf9, purified (Ni-NTA)
T2 sequence (Q12834 61-499 S92E): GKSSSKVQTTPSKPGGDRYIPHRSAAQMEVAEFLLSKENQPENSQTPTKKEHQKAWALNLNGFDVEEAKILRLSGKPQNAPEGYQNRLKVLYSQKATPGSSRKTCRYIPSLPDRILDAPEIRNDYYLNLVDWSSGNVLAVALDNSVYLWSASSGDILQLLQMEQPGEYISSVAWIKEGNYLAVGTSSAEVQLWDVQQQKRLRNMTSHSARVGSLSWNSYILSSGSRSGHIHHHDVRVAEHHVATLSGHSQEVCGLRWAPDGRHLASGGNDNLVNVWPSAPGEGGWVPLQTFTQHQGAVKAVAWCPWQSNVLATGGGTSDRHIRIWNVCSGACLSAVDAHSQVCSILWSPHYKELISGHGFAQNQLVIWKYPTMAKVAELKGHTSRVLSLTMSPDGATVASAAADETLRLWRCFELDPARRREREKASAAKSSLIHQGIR

T1 sequence (Q12834 61-499, stated change not applied): as the sequence (Q12834 61-499 S92E) above, with E32S counted along it

B1: BubR1 N-terminal fragment (BubR1N; residues 1–370) (domain or fragment, human, UniProt O60566 1-370, looked up)
chain: MAAVKKEGGALSEAMSLEGDEWELSKENVQPLRQGRIMSTLQGALAQESACNNTLQQQKRAFEYEIRFYTGNDPLDVWDRYISWTEQNYPQGGKESNMSTLLERAVEALQGEKRYYSDPRFLNLWLKLGRLCNEPLDMYSYLHNQGIGVSLAQFYISWAEEYEARENFRKADAIFQEGIQQKAEPLERLQSQHRQFQARVSRQTLLALEKEEEEEVFESSVPQRSTLAELKSKGKKTARAPIIRVGGALKAPSQNRGLQNPFPQQMQNNSRITVFDENADEASTAELSKPTVQPWIAPPMPRAKENELQAGPWNTGRSLEHRPRGNTASLIAVPAVLPSFTPYVEETARQPVMTPCKIEPSINHILSTRK
notes: source: bacteria, purified (Ni-NTA, TEV digestion, Resource Q, Superdex 200)
B1: binds (His6-Cdc20^ΔN60 WT); binds (His6-Cdc20^ΔN60 S92E).
